Measured values from US20240254220A1, “COMBINED THERAPY USING ANTI-CD300C ANTIBODY” (CentricsBio, Inc., priority 2021, published 2024).

Molecular target: T1, CD300c antigen (Homo sapiens, UniProt Q08708)
T1 construct: purchased Sino Biological 11832-H08H
T1 sequence (Q08708 21-183): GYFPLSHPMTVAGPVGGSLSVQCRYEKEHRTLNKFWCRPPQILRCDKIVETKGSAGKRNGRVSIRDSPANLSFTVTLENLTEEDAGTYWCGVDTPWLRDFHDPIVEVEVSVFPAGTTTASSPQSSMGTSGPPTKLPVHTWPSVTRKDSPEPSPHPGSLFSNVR
Experiment: Binding ELISA of anti-CD300c monoclonal antibodies to CD300c antigen
Details: CD300c antigen coated at 8 μg/mL, absorbance 450 nm
Method: In order to identify the antigen-binding ability of the anti-CD300c monoclonal antibodies produced in Example 1, binding ELISA was performed. Specifically, a CD300c antigen (11832-H08H, Sino Biological) or a CD300a antigen (12449-H08H, Sino Biological) in a coating buffer (0.1 M sodium carbonate, pH 9.0) was dispensed into an ELISA plate at a concentration of 8 μg/mL per well, followed by incubation at room temperature for 3 hours to allow the antigen to be bound to the plate. The unbound antigens were removed by washing three times using phosphate buffered saline-Tween 20 (PBST), and then 300 μL of PBST supplemented with 5% bovine serum albumin (BSA) was added to each well, followed by incubation at room temperature for 1 hour and then washing using PBST. Then, an anti-CD300c monoclonal antibody was diluted in quadruplicate and added thereto, followed by incubation for 1 hour at room temperature for antigen binding. After 1 hour, washing was performed three times using PBST to remove unbound anti-CD300c monoclonal antibody, and then 4 μg/mL of an antibody for detection (HRP conjugated anti-Fc IgG) was added, followed by incubation again at room temperature for 1 hour. […] Then, 2 N sulfuric acid solution was added to terminate the development reaction, and the absorbance was measured at 450 nm to identify the antibodies specifically binding to the CD300c antigen.

B1: CL8: anti-CD300c monoclonal antibody, VH3VL1 phage library, VH SEQ ID 331, VL SEQ ID 332 (antibody, V domains shown)
VH: EVQLLESGGGLVQPGGSLRLSCAASGFTFSSYAMSWVRQAPGKGLEWVSAISGSGGSTYYADSVKGRFTISRNNSKNTLYLQMNSLRAEDTAVYYCARSGRYADLTSGGQGTLVTVSS
VL: QSVLTQPPSASGTPGQRVTISCSGSNSNIGNNYVSWYQQLPDTPPKLLIYDNNKRPSGVPDRFSGSKSGTSASLAISGLRSEDEADYYCSSYTSSSTVMFGGGTKLTVL
modifications: CL8 Heavy Chain Variable Region; CL8 Light Chain Variable Region
EC50: 49.7 µg/mL
